# Reference: patent US20060281899A1, “Mutants of biotin binding protein” (priority 2002, published 2006)
# B1: AVR4/5: Recombinant chicken avidin-related protein 4/5 (AVR4 and AVR5 identical in coding sequence) (protein, UniProt P56734 25-150, looked up)
# Avidin-related protein 4/5: ARKCSLTGKWTNNLGSIMTIRAVNSRGEFTGTYLTAVADNPGNITLSPLLGIQHKRASQPTFGFTVHWNFSESTTVFTGQCFIDRNGKEVLKTMWLLRSSVNDISYDWKATRVGYNNFTRLCTVEE
# Tests used:
# [1] = tested on: biotinylated alkaline phosphatase; experiment: Microtiter plate assay, biotin-binding activity after heat treatment at 99.9° C.; format: physicochemical; details: 99.9° C. for various time periods
# Experimental: Reversibility of biotin binding was measured for avidin and the mutants with an IAsys optical biosensor (Laitinen, O. H. et al., FEBS Lett 461 (1999), 52-8). Protein samples were allowed to bind to a biotin-aminosilane cuvette in PBS containing 1 M NaCl. After the equilibrium was reached, biotin-containing buffer was added and the dissociation of the proteins was monitored. The affinities of the proteins towards 2-iminobiotin were determined with an IAsys optical biosensor (Marttila, A. T. et al. FEBS Lett 441 (1998), 313-7). Biotin-binding activity of the mutants Avd-ci and Avd-ccci after heat treatment was studied with a microtiter plate assay. Protein samples, 5 μg/ml concentration in PBS, were heated for various time periods at 99.9° C. and then chilled on ice. The samples were transferred to a Nunc Maxisorp-plate and incubated at 37° C. for 2 h. The wells were washed three times with PBS-Tween (0.05% v/v). […] The absorbances at 405 nm were measured after incubation for 45 minutes.
# Biotin-binding activity of the proteins after heat treatment was studied with a microtiter plate assay (Nordlund, H. R., Laitinen, O. H., Uotila, S. T., Nyholm, T., Hytönen, V. P., Slotte, J. P. & Kulomaa, M. S. (2003) J. Biol. Chem. 278, 2479-2483). […] The absorbencies at 405 nm were measured after incubation for 45 minutes.
# [2] = Non-reducing SDS-PAGE thermostability, oligomeric forms after boiling; format: physicochemical; details: boiled 20 minutes
# Experimental: The heat stability of the AVRs was studied by using an SDS-PAGE-based method (Bayer, E. A., Ehrlich-Rogozinski, S. and Wilchek, M. (1996) Electrophoresis 17, 1319-1324). In this method, each protein sample was divided into two fractions one of which was kept biotin-free and the other was supplemented with an excess of biotin. The samples were then mixed with denaturing SDS-PAGE sample buffer (containing β-mercaptoethanol) and incubated at a given temperature for 20 minutes. After heat treatment, the samples were subjected to SDS-PAGE and visualised by staining with Coomassie brilliant blue. The relative proportions of tetrameric and monomeric forms of the AVR proteins (with avidin as the control) were detected. A similar assay, with β-mercaptoethanol omitted from the sample buffer, was performed to examine the presence of intersubunit disulfide-bridges. Sensitivity to proteinase K was studied both in the absence and in the presence of biotin as described (Laitinen, O. H., Airenne, K. J., Marttila, A. T., Kulik, T., Porkka, E., Bayer, E. A., Wilchek, M. and Kulomaa, M. S. (1999) FEBS Lett. 461, 52-8). The isoelectric point of each AVR was determined by isoelectric focusing as previously reported (Marttila, A. T., Airenne, K. J., Laitinen, O. H., Kulik, T., Bayer, E. A., Wilchek, M. and Kulomaa, M. S. (1998) FEBS Lett. 441, 313-317). The glycosylation patterns of the AVR proteins were studied by treating the proteins with Endo Hf and PNGase F glycosidase according to the manufacturer's instructions (New England Biolabs, Mass., USA).
molecule,measurement,setting,value
B1,biotin-binding activity after heat treatment,[1],superior stability against boiling
same,"Dimeric form, relative proportion",[2],50 percentage
same,"Monomeric form, relative proportion",[2],50 percentage
